Assay results from publication PMC8752837, “Structural basis of BAK activation in mitochondrial apoptosis initiation” (Nature Communications, 2022).

How the values were obtained:
Format in all cases: cell-based, human
[1] = test system: BCL2allKO HCT116 cells expressing mC-BAK and BID; experiment: Dox + TRAIL + CHX induced cell death by IncuCyte imaging of SYTOX Green uptake (direct activation); conditions: TRAIL 200 ng/mL + CHX 0.5 µg/mL added at 6 h
Method: We achieved stable, constitutive expression of human BID in mC-BAK expressing BCL2allKO HCT116 by retroviral transduction based on pMX-human-BID-IRES-GFP. Amplification primers are included in Supplementary Table 4. We performed two rounds of FACS sorting gating on GFP-positive cells to enrich for populations of cells that express BID.
For coexpression of mC-BAK + BID, we treated cells with different doses of Dox for 24 h to induce expression of mC-BAK. At 6 h, we treated cells with TRAIL (200 ng/mL) + cycloheximide (CHX, 0.5 µg/mL) to promote BID activation under conditions of protein synthesis inhibition by CHX, and continued to record Incucyte imaging of SYTOX Green uptake up to 48 h. We blocked caspase activity with qVD (40 µM).

[2] = test system: BCL2allKO HCT116 cells reconstituted with mC-BAK; experiment: Endpoint FACS analysis of SYTOX Green positive cells; conditions: average, N = 3
Method: (§1) We seeded cells in 24-well (100,000 cells/well), 96-well (15,000 cells/well), or 384-well (10,000 cells/well) plates coated with 10 µg/mL fibronectin. After ≥24 h of attachment and recovery, we induced cell death with Dox (up to 1000 ng/mL) and monitored SYTOX Green (25 nM) uptake by Incucyte imaging. This dye marks cells with compromised plasma membrane integrity. mC-BAK expressed before 24 h, which coincided with detectable cell death. We monitored Incucyte imaging for up to 48 h, followed by endpoint FACS analysis to measure the extent of cell death based on SYTOX Green positive cells on FACSCalibur systems (BD Biosciences). As expected, cells with low mCherry fluorescence were refractory to cell death.

[3] = test system: BCL2allKO HCT116 cells reconstituted with Dox-inducible mC-BAK; experiment: Dox-induced cell death by IncuCyte imaging of SYTOX Green uptake (autoactivation); conditions: for SYTOX Green +ve counts/confluence AUC of kinetic traces: Fig 3d; for AUC (48 hr) of SYTOX Green counts/confluence: mC-BAK BCL2allKO HCT116 + Dox + qVD, average, N = 3
Excerpt: For mammalian cell culture experiments, we cloned the full length human BAK cDNA into pCR 2.1 TOPO vector, mutated BAK as needed, and PCR amplified the BAK gene for cloning into the BamHI and NotI sites of pRETROX mCherry vector for retroviral transduction. Amplification and mutagenesis primers are included in Supplementary Table 4. To test direct BAK activation and BAK autoactivation in cells, we produced cells stably expressing mCherry-human BAK (mC-BAK) ± human BID (BID) on a genetic background devoid of the entire BCL-2 family repertoire (all 17 BCL-2 genes), BCL2allKO HCT116, as described by the Xu Luo laboratory. We expressed WT and mutant mC-BAK using the doxycycline (Dox)-based inducible Tet-On 3G retroviral system from the pRetroX-TRE3G-Puro^R in BCL2allKO HCT116 cells expressing the Tet3G from pRetroX-Tet3G-Blast^R. We selected cells with puromycin (2.5 µg/mL) and blasticidin (2 µg/mL) starting at 2 days after retroviral transduction. To enrich for populations of cells that express mC-BAK, we treated cells with low Dox dose (25 ng/mL) and fluorescence-activated cell sorted (FACS) the mCherry positive cells. We performed the enrichment twice before cell death analysis. One caveat of our cellular system is tagging BAK with N-terminal mCherry, which may affect folding efficiency, degradation, and BAK interactome.
as §1

B1: V74A (1): BAK missense mutant, WT-like; in cells as mCherry fusion (protein)
chain: MASGQGPGPPRQECGEPALPSASEEQVAQDTEEVFRSYVFYRHQQEQEAEGVAAPADPEMVTLPLQPSSTMGQAGRQLAIIGDDINRRYDSEFQTMLQHLQPTAENAYEYFTKIATSLFESGINWGRVVALLGFGYRLALHVYQHGLTGFLGQVTRFVVDFMLHHCIARWIAQRGGWVAALNLGNG
modifications: left off: His6, C-terminal, kept
notes: BAK missense mutant, WT-like; in cells as mCherry fusion
For B1, the “cell death with Dox + TRAIL + CHX compared to Dox alone” value [1] was “boosted the levels of cell death”, the “flow cytometry SYTOX Green counts/confluence (48 hr)” value ([2]; Dox 100 ng/mL) was 40.5 and the “flow cytometry SYTOX Green counts/confluence (48 hr)” value ([2]; Dox 1000 ng/mL) was 46.1667. For the same molecule, the “SYTOX Green +ve counts/confluence AUC of kinetic traces” value (“SYTOX Green +ve counts/confluence AUC” for short) ([3]; Dox 6.25 ng/mL) was 290.31, the “SYTOX Green +ve counts/confluence AUC” value ([3]; Dox 6.25 ng/mL + qVD) was 201.143 and the “SYTOX Green +ve counts/confluence AUC” value ([3]; Dox 12.5 ng/mL) was 574.561. The “SYTOX Green +ve counts/confluence AUC” value ([3]; Dox 12.5 ng/mL + qVD) was 218.508, the “SYTOX Green +ve counts/confluence AUC” value ([3]; Dox 25 ng/mL) was 828.325 and the “SYTOX Green +ve counts/confluence AUC” value ([3]; Dox 25 ng/mL + qVD) was 220.818. For the same molecule, the “SYTOX Green +ve counts/confluence AUC” value ([3]; Dox 50 ng/mL) was 1653.15, the “SYTOX Green +ve counts/confluence AUC” value ([3]; Dox 50 ng/mL + qVD) was 333.116 and the “SYTOX Green +ve counts/confluence AUC” value ([3]; Dox 100 ng/mL) was 2313.65. For the same molecule, the “SYTOX Green +ve counts/confluence AUC” value ([3]; Dox 100 ng/mL + qVD) was 342.619, the “SYTOX Green +ve counts/confluence AUC” value ([3]; Dox 500 ng/mL) was 2761.33 and the “SYTOX Green +ve counts/confluence AUC” value ([3]; Dox 500 ng/mL + qVD) was 584.364. The “SYTOX Green +ve counts/confluence AUC” value ([3]; Dox 1000 ng/mL) was 2775.53, the “SYTOX Green +ve counts/confluence AUC” value ([3]; Dox 1000 ng/mL + qVD) was 699.139 and the Dox-induced cell death ([3]; IncuCyte SYTOX Green up to 48 h) was “induces cell death faster than I81A(3) or D83A(s) irrespective of Dox dose”. For the same molecule, the “AUC (48 hr) of SYTOX Green counts/confluence” value ([3]; Dox 100 ng/mL) was 79832.2 and the “AUC (48 hr) of SYTOX Green counts/confluence” value ([3]; Dox 1000 ng/mL) was 98530.5.
